From the Immune Epitope Database (IEDB)
pIC50, pKd: −log10 of the molar value.

What was measured:
[1] = biological target: HLA-A*30:01; test: IEDB peptide-MHC binding, purified MHC/competitive/radioactivity; filed as Kd, often an IC50 or EC50 that approximates it; ≥ and ≤ were set here for values at or beyond the usual limits of such assays
[2] = biological target: HLA-A*23:01; test: as above; conditions: source organism: Dengue virus 3 Martinique/1243/1999
[3] = biological target: HLA-A*24:02; test: as above
[4] = biological target: HLA-A*30:02; test: as above
[5] = biological target: HLA-B*08:01; test: as above
[6] = biological target: HLA-A*02:01; test: IEDB peptide-MHC binding, purified MHC/direct/fluorescence; filed as Kd, often an IC50 or EC50 that approximates it; ≥ and ≤ were set here for values at or beyond the usual limits of such assays; conditions: source organism: Francisella tularensis subsp. tularensis FSC198
[7] = biological target: HLA-A*69:01; test: as above; conditions: source organism: Francisella tularensis subsp. tularensis FSC198
[8] = biological target: HLA-A*02:01; test: IEDB peptide-MHC binding, purified MHC/competitive/fluorescence; ≥ and ≤ were set here for values at or beyond the usual limits of such assays
[9] = biological target: HLA-A*01:01; test: IEDB peptide-MHC binding, purified MHC/competitive/radioactivity; filed as Kd, often an IC50 or EC50 that approximates it; ≥ and ≤ were set here for values at or beyond the usual limits of such assays; conditions: source organism: Dengue virus 2 Jamaica/1409/1983
[10] = biological target: HLA-A*02:02; test: as above
[11] = biological target: HLA-A*02:03; test: as above
[12] = biological target: HLA-A*02:06; test: as above
[13] = source organism: Vaccinia virus WR
[14] = source organism: Dengue virus 1 Brazil/97-11/1997
[15] = source organism: Dengue virus 3 Martinique/1243/1999
[16] = source organism: Dengue virus 4 Philippines/H241/1956
[17] = source organism: Mammarenavirus guanaritoense

RARFIGGYI
pKd [1, 13]: 9.58

RARVSQGAG
pKd [1, 14]: 6.71

RFANALLAL
pKd [2]: 6.85 | pKd [3, 15]: 6.16

RGDLPVWLSY
pKd [4, 14]: 5.39

RRFRRPMSL
pKd [5, 13]: 6.95

RTPQDNQLTY
pKd ([4]; source organism: Dengue virus 2 Jamaica/1409/1983): 8.99

RTYSSSIIA
pKd [1, 13]: 7.30

RYLEFEALGF
pKd [2]: 8.33 | pKd [3, 15]: 7.42

RYLRDQQLL
pKd ([3]; source organism: HIV-1 M:B_ARV2/SF2): 7.52

RYRSGFWII
pKd [1, 13]: 8.06

SAKYINSSI
pKd [5, 13]: 6.86

SALYSYASA
pKd [1, 13]: 7.44

SGALWDVPSP
pKd [1, 16]: 4.96

SILEYAKSI
pKd [6]: 6.99 | pKd [7]: 6.97

SISIKLTDS
pIC50 ([8]; source organism: Vaccinia virus Copenhagen): ≤ 3.97

SITEAELTGY
pKd [9]: 6.41

SLLRNDVPM
pKd [5, 15]: 7.32

SLNTKFKTL
pKd [5, 13]: 8.06

SMFMSLLPA
pKd [5, 13]: 7.26

SPKRLATAI
pKd [5, 15]: 7.85

SSAMVQVHS
pIC50 ([8]; source organism: Zaire ebolavirus): ≤ 3.23

SVKINFEFV
pKd [5, 13]: 6.98

SVYIRPTSL
pKd [5, 13]: 7.97

SYKVASAGI
pKd [3, 16]: 6.98

TAQEQHNAA
pIC50 ([8]; source organism: Sudan ebolavirus): 4.56

TFKMRPMFA
pKd [1, 14]: 7.64

TFKNAHAKK
pKd [1, 15]: 6.95

TLGRNKRPRL
pKd ([5]; source organism: Dengue virus 3 Sri Lanka/1266/2000): 6.40

TLNTLITLIL
pKd [10, 13]: 6.82 | pKd [11, 13]: 8.15 | pKd [12, 13]: 6.08

TLVDLCFWS
pKd [10, 17]: 7.24 | pKd [11, 17]: 6.28 | pKd [12, 17]: 6.87

TMGVLCLAIL
pKd [5, 15]: 5.19

TTNNLLEQL
pKd [10, 13]: 6.91 | pKd [11, 13]: 5.85 | pKd [12, 13]: 5.52

TVGMLIYSM
pKd [10, 13]: 6.31 | pKd [11, 13]: 5.22 | pKd [12, 13]: 5.04

TVRDGQLEV
pKd [1, 13]: 7.89
